# Source: the supplement of paper PMC12764529
# ± gives the half width of the 95% confidence interval.
# Tests used:
# [1] = folding stability dG unfold from trypsin proteolysis; higher = more stable
# Procedure: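 Folding stability of de novo designed mini-proteins (<80 aa, no Cys; designed by TrROS, TrMRF, ProteinMPNN and the joint model) was measured by cDNA display proteolysis with trypsin and chymotrypsin. Each protease was used at 11 concentrations in a threefold dilution series plus a no-protease condition. K50 was inferred by Bayesian fitting of sequencing counts, and dG unfold was derived against a sequence-predicted unfolded-state K50 (Tsuboyama et al. method). Sequences shown include variable-length N-terminal GS-type padding (SAGGSAGG...) inside a display construct carrying a PA tag. Rows were kept only if the AF2 dimer inter-PAE was >15, to exclude likely homo-oligomers.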
# [2] = folding stability dG unfold (combined trypsin and chymotrypsin); higher = more stable
# Method in brief: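 Unfolding free energy was derived, per protease or combined, by relating Bayesian-fitted K50 values from sequencing counts to a sequence-predicted unfolded-state K50 and a shared folded-state K50. The underlying digests exposed cysteine-free mini-proteins under 80 residues, in a PA-tagged cDNA display construct, to trypsin and chymotrypsin at 11 threefold-diluted concentrations and to a no-protease condition. A filter kept only designs with AlphaFold2 dimer inter-PAE above 15.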
Sequence,folding stability dG unfold [1] [kcal/mol],folding stability dG unfold [2] [kcal/mol]
SAGGSANMREVEIPMTPNDLEEALEEVEDAPPGRNVSVNMTNPEEGKPYPIKIRVNENGKLTEIEFSAGGSA [r15_228_TrROS],0.501 ± 0.077,-0.179 ± 0.27
SAGGSAGGSAGIPNLIAYEVSKEGKPVKIIVKSPNGEEYEITVSPNESIPENIEILKVEVGSAGGSAGGSAG [r3_421_TrMRF],0.685 ± 0.034,-0.0441 ± 0.15
SAGGSAGGSYPIFDKEKGKLDPGPPEKELDVVIKVKKDGKWYPIDLKLSKSDLIRFVKELEKDSAGGSAGGS [r20_148_TrMRF],-0.698 ± 0.24,< -1
SAGGSAGGSMTETVVLPYPLPPGVPFHIELPDGSKSVSADPETGTLTVLVKKGTEEAVKEALASAGGSAGGS [r12_476_JUSTAS],-0.508 ± 0.12,-0.989 ± 0.27
SAGGSAGGSAMPEPVTITVRVPYEPDEAEAAAERIREEEYPDAKSITVTRDPATGTATFTVNSAGGSAGGSA [r18_390_JUSTAS],-0.222 ± 0.18,< -1
SAGGLEAKITEIDEDGYLRIEIVDPETGELIAEIRIKIELPPPPPVPETEEVLDEDGRKRTVTRLYDRSAGG [r13_9_TrROS_Hall],0.214 ± 0.13,-0.406 ± 0.23
SAIRGLPPEEIEKAVKKLAKEGNVEIEIKPFTMRVYPPDGGQQPYQYYQIEIYNPDNGKPIEDKIKKLFSAG [r14_628_TrROS],0.167 ± 0.25,< -1
SAGGSAMPKPKVEILKVEKTEDGTVKVPVKVEVTFEDGSKETVPATVTFEVEEGKPLGPEALKEAISAGGSA [r15_836_TrMRF],-0.377 ± 0.11,< -1
EMTVTVKIEIEKTPDSIKIKITVEVNGKKIEEVEITYDKKTKKIYIKVKVKSKEDLDELKKLLEKLGFKVES [r1_455_TrROS_Hall],3.81 ± 0.31,> 6
SAGGFRINIPPNMPKEKLEEIQDEAEEESGMPVTINTNPDDGSLHIEFPGGPEWKQRRIQDEIRELLSAGGS [r16_227_TrROS],-0.507 ± 0.44,< -1
SAGGSAGGSSMPPGWSVTSETVVESIIETPNGPIIKVTTSKTTVTPPNGPPSTYTTTSEDPLGSAGGSAGGS [r12_544_JUSTAS],-0.314 ± 0.13,< -1
SAGGKPDIKDIEIDDVEYDPNEGYFRYEVEIKWPGGKERPIEVPMKYEDGRMTPEDIRKMAKKLIKNSAGGS [r16_221_TrROS],0.423 ± 0.15,< -1
SAGGSAGGSAGGKLVKVTFRTPGGGTLTVEVPPTESLTLPYGDKPILVDVKEDEVVFRDESAGGSAGGSAGG [r7_510_TrMRF],-0.572 ± 0.18,-0.891 ± 0.44
SAGGMGQEELENLPPEVVAGLLAEEALAEAERLGRPNEAVTVEVELGDVPLRIELTADGKIARIEAGSAGGS [r16_431_TrMRF],-0.548 ± 0.14,< -1
SAGGSAGGMKPTVEVRPVPPSARMVVTITLPGSGKKVTIPVPDAPAPEEPERVIEEALAYVKTSSAGGSAGG [r6_331_JUSTAS],-0.714 ± 0.47,< -1
SAGGSAGGSAGGYKVKVYNPENGKPQEIPLPPNDIPELLDKLPNGPWWIRVKDPDRWIPLSAGGSAGGSAGG [r7_188_TrROS],-1.05 ± 0.51,-0.562 ± 0.57
SAGGSAGGSAGGLKIQRFPDGNWYRIYLPNGNEHHIPMDEPIKVPNAKEPVKIEPVPPDDSAGGSAGGSAGG [r7_968_TrROS],-0.936 ± 0.28,-0.961 ± 0.41
SAGGSAGGSSSVMTVTVEYPTPAPPVVRRETVEVPDPDGSLSEEELKEKYSPPDAVVTEVVRESAGGSAGGS [r12_611_JUSTAS],-1.07 ± 0.34,< -1

Sequence,folding stability dG unfold [1] [kcal/mol],folding stability dG unfold [2] [kcal/mol]
SAGGSAMTLEELKGMPIRSWWPGGQKIEMPIKKIDLNDPMFEIKFGGEPIKIPFNHPMRIEIQPPKSAGGSA [r15_355_TrROS],0.0637 ± 0.052,-0.64 ± 0.27
SAGGSAGGSAVEEEVERIEKAVGVPIDPGSSVTKVKEGVEPVLPYRMDIKPGVESPELLLLSAGGSAGGSAG [r3_427_JUSTAS],-0.908 ± 0.53,< -1
SVVNFPVSLAATRDGNPVPIEEVLERVAKEIGGPDVKPEIKPGPGDTLVATVKLPDGTTATASDSSSVTDAS [r1_168_JUSTAS],-0.293 ± 0.11,< -1
SAGGALAVKVEFDEEIPTATITYRAPVPGEGGAVDVPADEVAAAIAKALGLPDLEEVTVNVPAPDAPLSAGG [r13_327_JUSTAS],0.197 ± 0.075,-0.543 ± 0.22
SAGGRGQELTIPNGAPIEDIEELAKKDPDYQVKITEIKMQKPKKDPNGKKRPVPMWMKITLYPAGEKSAGGS [r8_172_TrROS],0.116 ± 0.27,< -1
SAGGSPYRIKFEFPNGPKFEFPVKITEIQPPNGNLYANITAQDDGKPHELMFPAPNIRPVEIEPPPSAGGSA [r2_319_TrROS],-0.796 ± 0.69,-0.414 ± 0.66
SAGGSAGGSAGTIVTPTATYRIEKLPDKRVRIVVGDKEYEVRVGEPFYLPGGVPFEVLDESAGGSAGGSAGG [r11_147_TrMRF],0.35 ± 0.13,-0.299 ± 0.19
SAGGSAGGSPPFTITFIDENGKGVKKINLPFDPKKPSVLPLSEEEIKALKEELGPEAKSITLSSAGGSAGGS [r12_514_JUSTAS],-0.658 ± 0.16,< -1
SAGGSAGGSAGVPVPGTDVPAEPITVLKKNPDGTVTKLKDESLTLEEIKAKLPGEVEFVGSAGGSAGGSAGG [r17_125_JUSTAS],0.0884 ± 0.14,< -1
SAGMYIEGSLSSPEEAPVVAVPFPGPEKLLLAPLAVGLEEIREALEEEGFEPVEIRVAETEPGVPLDLSAGG [r19_386_TrMRF],0.211 ± 0.024,-0.694 ± 0.24
SAGGGSSMVTTVIPVLRTETLFDENGNVIGPRTTVETIELEAEVPLPPRPPLVFSFVPPELRDPAVLLSAGG [r13_508_JUSTAS],-0.299 ± 0.24,< -1
SAGGGSMVNISKEELAKKIAKELGKDFPTENVKVKKEIYPEPVSIYTITIKVPGTNITLNVPITLPESAGGS [r16_42_JUSTAS],-0.043 ± 0.098,-0.226 ± 0.22
SAGGSAGGSAGGKEIPLDEVKDIQPSNDKWYVVFPGKPQRFPPDDIPIPPGKPIRIYPLSAGGSAGGSAGGS [r10_665_TrROS],0.338 ± 0.058,-0.154 ± 0.24
SAGGDILLVIPAELFFDEDGKPSEEAVKAIEKAAELAEKLNKEGKPVKIEVKVVPLLPPVSPSDPYVFSAGG [r13_731_TrMRF],0.162 ± 0.055,-0.358 ± 0.36
SAGGMPIKPKVELEPLEDAYLVRVRFEAPDRPIEIRRAFASFPDAVREAEEIARFLEEAEIPSPEGGSAGGS [r16_24_TrMRF],-0.682 ± 0.66,< -1
SAGGSAGGSNIVSARPLGDLVLIEIEPGGKPLRAVVRPSELPPNPPIPPGLSYRVEPGSVSDYSAGGSAGGS [r12_1005_TrMRF],-1.09 ± 0.28,< -1
SAGGTVKVTVEVRDEETGETVTVEVEVEPAPAPPVVVLPAEDLEKLRELGFPENAVLDEETNELVIFSAGGS [r16_194_TrROS_Hall],0.537 ± 0.085,-0.204 ± 0.24
SAGGSAKPVEVELPDGIEIYYPKDRMYIEINLPNGRPIKIPFEFDDPNDPERALDKARDLVKKLPWSAGGSA [r15_748_TrROS],-0.577 ± 0.41,< -1
